In the DeepSol protein solubility set:

Assay: soluble on expression in E. coli; label from the status in PepcDB or PDB records

Row | Sequence | soluble on expression in E. coli
1 | MIKLAPAALKADLQVRQERVRIAMEEEGYDALLVTSNVNLLYLFGSIYGGAAYLPAEGEPIFFVRRPQVIEEGNVCPIRKLEDIPALIQSRGGVLPRRIMLENDESSYSDIKRQHSIFPNAEYGNATALLRRLRMIKTPGEIELFRRTAAIHGEVYACIPSVFRPGMTDREFQVEIEHLMRNYGSEGIFRTFGSAMEIHMGNVIVGDNAESPSPYDFAMGGGGTDALPLGADGSPMKEGMCVMVDMAGNYSAYISDMTRSYAIGKVPDEARRLHDLSREIQAKVMETAEPGMSCADLYKRSVEMAEEAGAADKFMGTKQQAKFVGHGIGLQINEMPVLMARSKEILTPGMVIAFEPKFVLPGIGAVGNENSFLVTESGVEKLTVCSEELIDLLAVAKQ | not soluble
2 | MGSDKIHHHHHHMLKLKKILADLHVEQAELAEQMAYSQATISQLVNHSVWPKRAARWGLRERILKFLKERGANDDQVATAFEEWTPTRGNASESGSHTPTGGTEDEAMSIRKQILHPNTRRHFKLPGDPFEEVASAEEFYQNEHIRFTRAAMLDAAKRGGFLAVVGESGSGKTTMRRDLQERIERESIQVQVIRPYVVAMEDNDDKGKTLKATHIAEAIMAAVAPHEVLKTSSEARFRQVEKALKESYRTGMRHVVLIEEAHAMPLATLRHLKRFIELEDGFTRLLSVILIGQTELAIKLNPKNATVREVVQRCELITLPPLGQYLEDYLKFRFARLGVQLDQMVTLDGVQAIRSRLQPEAPRGHEERSFLYPLAVHNLLTAAMNLAAENGAPAVSADIVMEAKWN | not soluble
3 | MAVEAVWESARILANSRFAVAFTGAGISAESGIPTFRGKDGLWSRFDPRDLATPEAFNRDPRLVWEWYSWRIERVLAAKPNKAHRLLARLEDSGVLKAVITQNVDGLHRRAGSRRVLELHGNVLRARCTRCGSKLEWREKPSNLPPSCPRCGGVLRPDVVWFGEPLDTSLLEEAFGLARRSDVMIIIGTSGAVDPAGLLPLAAKESGATLINVNPEPNRYSGVADIELRMRAVEFAERLSRAMGIDI | soluble
4 | MAKRVVSVSLGSSRRDAAAEVELLGERVLLERRGTDGDFQRALCLIQELDGKVDAIGLGGIDLYLFAGGRRYAIRDALRLKEAAKKTPVVDGSGLKHTLERRAVRELASLIDWRKTKVLLPSAVDRFGLAEALDEAGARVLYGDFIFALGLPIPLYSLSFLQKLAFLLLPLFTRLPFSVLYPTGKKQEEVREDWRARYYAWADVVAGDWHYVRRHMPKDMRGKTVITNTTTEEDVAFLRERGVRRLVTTTPRLGGRSFGTNVMEAMLVALAGRELGEADYLRYIDQIGLKPQVLELKGQA | soluble
5 | MSLKPINVVIIENENISRVGAAAILSETGKIQVCGLAKTGKEGIETVDQQKPDIVVINIDLPDINGTDVISLIKCKHTSIKIVVMTANSSRDTINAAISNGADCYYCKNNAREEVGERFIEAVMAAYNNESWIDPTINRILIDNLRSNDTADRDSLDLLSDFSNKEITVLKLAAGGMKNNEIANVMYVSEGTVRSYLHNSFIKLGVKDRLNAIREAIRLGILSFADEGHHHHHH | soluble
6 | GLEYRFSKSKQALELTSLRLKEKSEQLEHSQRVAIVGEIGSSLAHELNQPLAAIRNYSEGGLLRLAKKRPHEDIVPVLEKIQGQVERADAIIQRLRTLIRKRSVDKTPCDIQALIADTIELLHFRMQKQNVAIVTSVEGEIRPLLADSVGVQQVLVNVINNAIDACALFQEKYHSSGYQGKIALHCDYQANQLSIRILDNGTGLQQENPTQAFVSSKAEGLGLGLAICRDVMEMHGGEFLIASTTPHGCLVELVFPYQN | not soluble
7 | MGSDKIHHHHHHMDAKTIIENRFQSQKLIQTAWSDSPERIVFHFGAMQSQNYGQSLWAVGSRMTTPSEESVEQAINNGEIIRTWLLRGTIHLFSAKDYHWMMDLIAPTIDKICKPYRAKLGLTDEVLHKATEVVSEIVSEQAVTRKDLAAHLATKDLPSAGIPFAQLLVYLSSRKVICSGPNETFRNTMHIPADTNHFTREEAIKELAKRYIQSHAPATLKDFCFWSGLTVTDAKIGLADMPKMGDYYITTLVENGTMPTTIPLAGFDEWIIGYRDRSVVLPEIWHDEIMTKNGIFRPAIITEGKVVGKWEKPKKRAELDGDFWDRYIQFRNML | not soluble
8 | MRHSLWLLLAAILSLPAQAGTECRDIHDRDLRRMCNALERGDSGDCGDIDSRDMRRYCGALLAPGQRYDCDDIRDGDTRRQCRAIVRGDRKRCDDIDSRDMRRQCRAVVSRAPWQCDGIDDRDMRRICRVILSR | soluble
9 | SSGSTVDSTTLCLFDVDGTLTAARQKATADMHEFLSKLKQRVKVGVVGGSDLDKIKEQLGDDVIDRVDYVFAENGLVAYRFGKLHSVQNIQAYLGEDILQEFINFCLNYLSKIKLPKKRGTFIEFRNGMLNVSPIGRSCSQQERIEFFELDKKEKIRETFVSVLKEEFAGKGLAFSIGGQISFDVFPEGWDKRYCLGIVEKDSYQHIHFFGDKTMPGGNDYEIFVDPRTIGHEVKSPEDTQRICRELFFS | soluble
10 | MERRLIFGTIASKMSLAPEADLDSLIIRNDSLSGAVIAAIMQEAGLRAVRKNRYVILQSDLEEAYATQVKTDNTVDKFDFYK | soluble
11 | MSLSKRAYFGTDGIRGQANKHPMTAEVALRVGLAAGKLFRSQDERRHLVVIGKDTRLSGYMIEPALVAGLTSVGLDVRLFGPLPTPAVAMMTRSMRADLGIMISASHNSFADNGIKLFGPDGYKLSDAQELGIEALMDQGLQEGLAAPRELGRVKRIDDAQARYVEIVKATFPRHLNLSGLRIVIDCANGAAYKVAPTALYELGAEVITLGVSPDGTNINEECGSTHPEAMAKMVREYRADIGIALDGDADRLVICDEKGVVVDGDQIMAIIAAASHKAGTLKGGGVVATVMSNLGLERQLNTMGLSLERTAVGDRYVMQRMREGGFNVGGEQSGHLILSDFSTTGDGLIAALQVLAVMVETDKPMSALGRQFEPVPQLLENVRFVGGKPLEAAAVKEAIADGEAQLNGAGRIVVRASGTEPLIRIMAEGDDPALVKKVVKSIASAVKEGHHHHHH | soluble
12 | MGSDKIHHHHHHMTLLDRFDGGFARDGEDIIAGSRIEDARIHNRRLVFETIFQRGPISRVEISAIVGLKPQTISSITRELLEQELIVEAGRSSGLRGQPQIYLEANAEAGFSIGVHLDQNQCHILVFDLKRQERARKSMRCDTANPDVTVRMLAQTITTLLHDNALPAERIWGLGLVLPTFGSDVYDFDFSMRHWEAWRDASFAEDLQRLTGFAVLVENDGTAAAIGERLHRHDAQEASFAYFYIGHGAGAGLIIDGYPFKGVGGNAGEIGLLPILGLGANPVWPDNPSSAVQGGVLSIGGLAAACGLSEQSMDEQSILSLLERRDHRLMDWLASAASVLRDVCAVIEVMFDPGFIAVGGALPRALVERLVDRAYPLRPTPSARRDRALPRLLPATLIEDAAVTGAAMLPIFVTTSHNFRHLYFRQILADDRS | not soluble
13 | MPKPYIAINMADLKNEPKTFEMFSAVGPKVCMVTARHPGFVGFQNHVQIGVLPFGERFGGAKMDMTKESSTVRVLQYTMWKDWKDHEEMHRQNWSYLFRLCYSCASQMVWGPWEPIYEIKYADMPINTEMTDFTAVVGKKFAEGKPLEIPVISQPYGKRVVAFGEHTVIPGKEEQFEDAIIKTLEMFKRAPGFLGAMLLKEIGVSGIGSFQFGSKGFHQLLESPGSLEPDPNNVMYQAPEAKPTPPQYIVHVEWANLDALQFGMGRVLLSPEYREVHDEALDTLIYGPYIRIINPVMEGTFWREYLNE | soluble
14 | MEESIMSIKVDMSLDCKGLACPMPIVKTKKAIEGLAPGQVIEVKATDKGSTIDIKSWASKVGHQYIGTKHEGDVLVHYVRKANEHEVNEVVKYPHTITNAELQSILSHGEESIVLDVREAAEFAFGHIPSAISVPLGELDSAVLDETKRIYVICRTGNRSDVACHMLKEKGYANVKNVIPGMLEWKGNVEK | not soluble
15 | MKIIARNKKALFDYSIIERFEAGIVLKGSEVVALRAGRANLKDSFVRIIKNEIFLLNSHISLLHTTHSFYKHEERGARKLLMHRKQIDKLLGKVSIEGYTIVALDLYFNTKNKVKATLALAKGKNLHDKRETLKKKQADLEARAAMKNYK | not soluble
16 | MSLSQVQVDRALAGLIVRAPLPAGWRAERMSALDVAAVAAVEQAAFAFPWSRGNFEDSLKSGHLGIVLRDGGNQVAGYLILMPVVDEMHLLNVTVAPAWQRQGLGRWLLRAAQALTLAHGFASLLLEVRPSNAGAIALYRRVGFAEIGRRKRYYPAENNTREDALVMRIACEAGGVEAAEGHHHHHH | not soluble
17 | MLKCVMSGSQVKVFGKAVQALSRISDEFWLDPSKKGLALRCVNSSRSAYGCVLFSPVFFQHYQWSALVKMSENELDTTLHLKCKLGMKSILPIFRCLNSLERNIEKCRIFTRSDKCKVVIQFFYRHGIKRTHNICFQESQPLQVIFDKNVCTNTLMIQPRLLADAIVLFTSSQEEVTLAVTPLNFCLKSSNEESMDLSNAVHSEMFVGSDEFDFFQIGMDTEITFCFKELKGILTFSEATHAPISIYFDFPGKPLALSIDDMLVEANFILATLADEQSRASSPQSLCLSQKRKRSDLIEKKAGKNVTGQALECISKKAAPRRLYPKETLTNISALENCGSPAMKRVDGDVSEVSESSVSNTEEVPGSLCLRKFSCMFFGAVSSDQQEHFNHPFDSLARASDSEEDMNNGSFSIFLEHHHHHH | not soluble
18 | MGSDKIHHHHHHMATLSKKIDFAIIMSVKNANPNGDPLNGNRPRTDYEGLGEITDVCLKRKIRDRLVEQYVSLKNEEEKKGQAIFVQSDDRKIDGETSLRNRAESEKNGLGKKAFGANAKKDETAKSACEKWFDVRAFGQVFAFGKGNDADGVSIPVRGPVTIQSAFSRDLVSISSTQITKSVSGEGDGKKRSSDTMGMKHRVDRGIYVTYGTMNPQLAERTGFSDKDAAVIKAILPKIFENDASSARPEGSMEVVKVLWWQHNSKSGDYSSAKVHRSLKVNPDGSYIIEPLNGLVPEEIAGF | not soluble
19 | MSLTSFSRLNTNLLQLKSKHSSDNAQHLYVNGNVGSSTEEITSVEYSKLLQLKLIDESLSFQWCNNYTVLSIYSMKETFARKTIYIHFPKPLLNKWFTAVVYESSETTSNLCFDVILKDGIFINLSLPIDFILSRTRQNEYPENWLKVLNPYDFSVRPPQCLFHVDNTFSVVFLKDGGLLGLKRIPLEILNDFELQPVLFNDSSYFQSFTRMFSKYDNHNSAVVSAELLNDKYLVTLTNDATIKIWDLTTYQLNAHFDLKEKNQQVNYGAAGKYMIICGSLLFVYLPAGNGSFQVIQLENTHSSRISFKPLNVNIPLNLSSYSIWSLIDIQLVKSSIVKQSGLNLVLLWKSNTVTKLQLLSFEDSLYSSYKWIDGNSTYLSDLLDDSDLITNGNMEKALLNLKSHYSQSTYDDAQKILNKNNVMVQINDPHNQDYLNNLEALLKELHKQYQEPSTLTILDDEIIVVNSLHMYHHSTYKLDSQLETIFFNIFERKEPSSQLELFLNILHGFSTTITSETLNKISEKFLDMVNGSINPSLSLKNKITIVFQDCLTNGFQSANLSKLLENLNSIDVVEVLSEFIHCDLKVGAFSVIDLLDTDIFLSVLSMESLKQTLSIMDKFIIDILLVFTIVDINYEVFAEKLSKLITLHFNISLWLQVYQIDKLLAISETFGHVTKYNYGAQLKSYSDITDFTTLMVGFVKNSEGHHHHHH | not soluble
20 | MSNSVTNFEMSSVLPGKKPCQGKNNESQVVQTTPIKKHSVTFKNQSSLGVIDHYARLTNKSHSSVIAEVVDLAIPILEKCNRHNWSINEIKNDLLKFSIKESINRSRGKTEVTLEEYCSLIWKTNIMSPLKIPIADYFQLNANDEFMGKDEKTVIRERLSSLRENYDMEKAIYIYNQRHFDVKHQSVSGYSNIILIHRTTFEGYYFDAGQALLLSTSQLIIFGINEVLRRKGIVMPYPVVCWIDIYHVNEMVVMLPVLRKTDVSNRVNVPDDIIINPYSQESRT | soluble
21 | MGHHHHHHSHMCPRCGKQFNHSSNLNRHMNVHRGVKSHSCGICGKCFTQKSTLHDHLNLHSGARPYRCSYCD | soluble
